Data taken from patent US20140147384A1 (NORDIC NANOVECTOR, published 2014).

Legend:
[1] = biological target: CD20 on living lymphoma cells (Raji, Rael, Daudi) (UniProt P11836); experiment: immunoreactive fraction, modified Lindmo method on lymphoma cells; 1 experiment
[2] = biological target: CD20 on living lymphoma cells (Raji, Rael, Daudi) (UniProt P11836); experiment: ^125I-labeled antibody on Rael cells, one-step curve fit of specific binding against time and concentration
[3] = biological target: CD20 on living lymphoma cells (Raji, Rael, Daudi) (UniProt P11836); experiment: immunoreactive fraction, modified Lindmo method on lymphoma cells; mean ± SD of 6 experiments
[4] = biological target: CD20 on living lymphoma cells (Raji, Rael, Daudi) (UniProt P11836); experiment: ^125I-labeled antibody on Raji cells, one-step curve fit of specific binding against time and concentration
[5] = biological target: T1, human CD37 on living lymphoma cells (Raji, Rael, Daudi) (human, UniProt P11049 1-281); experiment: ^125I-labeled antibody on Rael cells, one-step curve fit of specific binding against time and concentration
T1 construct: whole, on cells; Target of HH1 and of the three bought anti-CD37 antibodies on cell lines; also called CD37 antigen
T1 sequence (looked up): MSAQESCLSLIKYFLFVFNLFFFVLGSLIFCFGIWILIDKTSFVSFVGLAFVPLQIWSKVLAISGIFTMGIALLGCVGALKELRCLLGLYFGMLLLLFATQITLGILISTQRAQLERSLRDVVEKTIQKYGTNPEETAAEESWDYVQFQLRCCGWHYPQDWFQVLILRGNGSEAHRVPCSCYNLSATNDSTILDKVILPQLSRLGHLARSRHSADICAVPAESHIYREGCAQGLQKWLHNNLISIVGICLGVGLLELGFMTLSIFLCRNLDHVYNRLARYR
Method: (§1) The association rate constant, kₐ, the equilibrium dissociation constant, Kd, and the mean number of binding sites, Bₘₐₓ, was determined by a one-step curve fitting method (Dahle et al. 2007). The binding parameters were measured for HH1 and rituximab and for three different lymphoma cell lines; Raji, Rael and Daudi cells (Table 2). Specific binding was measured as a function of time and antibody concentration, and the solution of the differential equation describing the net rate of formation of the antigen-antibody complex was fitted to the experimental data points using the association rate constant, kₐ, the equilibrium dissociation constant, Kd, and the mean number of binding sites, Bₘₐₓ, as parameters. Five million cells pr ml were used, four concentrations of ¹²⁵I-labeled antibody (100 ng/ml, 1000 ng/ml, 5000 ng/ml and 10000 ng/ml) and 7 incubation time points (5 min, 10 min, 20 min, 30 min, 1 h, 1.5 h and 2 h). After incubation, cells were washed twice with PBS, and then counted in a gamma counter.

[6] = biological target: T1, human CD37 on living lymphoma cells …; experiment: ^125I-labeled antibody on Raji cells, one-step curve fit of specific binding against time and concentration
Method: as §1

[7] = biological target: T1, human CD37 on living lymphoma cells …; experiment: ^125I-labeled antibody on Daudi cells, one-step curve fit of specific binding against time and concentration
Method: as §1

Sequence of CD20 on living lymphoma cells (Raji, Rael, Daudi) (P11836 whole entry): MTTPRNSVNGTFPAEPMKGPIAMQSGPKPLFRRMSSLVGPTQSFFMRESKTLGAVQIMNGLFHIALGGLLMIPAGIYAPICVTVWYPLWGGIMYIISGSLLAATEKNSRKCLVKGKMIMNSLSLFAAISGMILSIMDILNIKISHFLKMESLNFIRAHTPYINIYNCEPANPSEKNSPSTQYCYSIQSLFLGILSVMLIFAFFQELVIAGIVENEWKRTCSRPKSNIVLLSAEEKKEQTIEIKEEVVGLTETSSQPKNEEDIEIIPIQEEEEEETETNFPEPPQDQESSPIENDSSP

## ^177Lu-rituximab (antibody)
[1]
  IRF (%): 60%

## ^111In-rituximab (antibody)
[1]
  IRF (%): 45%

## ^125I-rituximab (antibody)
[2]
  Bmax(Ag/cell): 626000 Ag/cell
  Kd: 12 nM
[3]
  IRF (%), mean: 62%
[4]
  Bmax(Ag/cell): 272000 Ag/cell
  Kd: 4.8 nM

B1: ^125I-labeled HH1 (antibody, V domains shown)
VH: EIQLQQSGPELVKPGASVKVSCKASGYSFTDYNMYWVKQSHGKSLEWIGYIDPYNGDTTYNQKFKGKATLTVDKSSSTAFIHLNSLTSEDSAVYYCARSPYGHYAMDYWGQGTSVTVSS
VL: DIVMTQSHKLLSTSVGDRVSITCKASQDVSTAVDWYQQKPGQSPKLLINWASTRHTGVPDRFTGSGSGTDYTLTISSMQAEDLALYYCRQHYSTPFTFGSGTKLEIK
modifications: ^125I by indirect iodination with IODOGEN tubes; chain and residues not stated
[5]
  Kd: 12.7 nM
[6]
  Kd: 6.3 nM
[7]
  Kd: 2.7 nM
